The values that follow are results of earlier work, collected in paper PMC3037027.

This series concerns the target U2AF65 UHM (Homo sapiens) (UniProt P26368). The series can be described thus: ITC.
Chain of UniProt P26368 (P26368 372-475, one chain of several): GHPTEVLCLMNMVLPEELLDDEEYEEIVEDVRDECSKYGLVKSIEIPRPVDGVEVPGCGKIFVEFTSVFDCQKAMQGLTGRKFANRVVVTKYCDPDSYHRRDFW

Take SF1 1-255 (from UniProt Q15637): the Kd was 0.012 µM.
